Measurements from US20220242936A1 (CHANGCHUN GENESCIENCE PHARMACEUTICAL, published 2022).
Residue numbers refer to the chain shown, from its start. Where no end group is shown, it is not given here.

T1: biotinylated Aβ1-16 polypeptide (also: biotinylated (site not given here))
T1 construct: also called Aβ1-16 (N-terminal peptide fragment)
T1 peptide: DAEFRHDSGYEVHHQK

B1: 066-4.26.14H3L5 (antibody, human IgG1, kappa, V domains shown)
VH: EVQLVQSGAEVKKPGESLKISCKGSGYSFRSYAMSWVRQMPGKGLEWVASISTTSNTYYPDSVKGRVTTSRDKSISTAYLQWSSLKASDTAMYYCGRGVITNQAWFAYWGQGTLVTVSS
VL: EIVLTQSPDFQSVTPKEKVTITCRASQSISNNLHWYQQKPDQSPKLLIKYASQSISGVPSRFSGSGSGTDFTLTINSLEAEDAATYYCQQSNSWPLTFGQGTKVEIKR
notes: Humanized full-length antibody; human IgG1 heavy constant and human kappa light constant (vectors pGS003-hIgG1CH, pGS003-hIgKCL)
B2: 066-4.26.14H1L2 (antibody, human IgG1, V domains shown)
VH: EVQLVESGGGLVKPGGSLRLSCAASGFTFRSYAMSWVRQAPGKGLEWVASISTTSNTYYPDSVKGRFTTSRDNAKNSLYLQMNSLRAEDTAVYYCGRGVITNQAWFAYWGQGTLVTVSS
VL: DIVLTQSPATLSVSPGERATLSCRASQSISNNLHWYQQKPGQAPRLLIKYASQSISGIPARFSGSGSGTDFTLTISSLQSEDFAVYFCQQSNSWPLTFGGGTKVEIKR
notes: as for B1
B3: 066-4.26.14H3L1 (antibody, human IgG1, kappa, V domains shown)
VH: B1 VH
VL: B2 VL with A19V, P40S, A60S, K103Q
notes: as for B1
B4: 066-4.26.14H1L3 (antibody, human IgG1, V domains shown)
VH: B2 VH
VL: B1 VL with E1D, T22S, V58I, T85A, Y87F, Q100P
notes: as for B1
B5: 066-4.26.14H5L4 (antibody, human IgG1, V domains shown)
VH: B2 VH with K13Q, A23V, A74S, S77T, L78V, N83S
VL: B2 VL with D1E, A9G, V13L, A60D, S77R, Q79E, S80P, F87Y
notes: as for B1
B6: 066-4.26.14H4L4 (antibody, human IgG1, V domains shown)
VH: B2 VH with K13Q, L78V, N83S, A87D, V92M, T113I
VL: B2 VL with D1E, A9G, V13L, A60D, S77R, Q79E, S80P, F87Y
notes: as for B1
B7: 066-4.26.14H3L4 (antibody, human IgG1, kappa, V domains shown)
VH: B1 VH
VL: B2 VL with D1E, A9G, V13L, A60D, S77R, Q79E, S80P, F87Y
notes: as for B1
B8: 066-4.26.14H4L2 (antibody, human IgG1, V domains shown)
VH: B2 VH with K13Q, L78V, N83S, A87D, V92M, T113I
VL: B2 VL
notes: as for B1
B9: 066-4.26.14H5L3 (antibody, human IgG1, V domains shown)
VH: B2 VH with K13Q, A23V, A74S, S77T, L78V, N83S
VL: B1 VL with E1D, T22S, V58I, T85A, Y87F, Q100P
notes: as for B1
B10: 066-4.26.14H1L4 (antibody, human IgG1, V domains shown)
VH: B2 VH
VL: B2 VL with D1E, A9G, V13L, A60D, S77R, Q79E, S80P, F87Y
notes: as for B1
B11: 066-4.26.14H5L1 (antibody, human IgG1, V domains shown)
VH: B2 VH with K13Q, A23V, A74S, S77T, L78V, N83S
VL: B2 VL with A19V, P40S, A60S, K103Q
notes: as for B1
B12: 066-4.26.14H5L2 (antibody, human IgG1, V domains shown)
VH: B2 VH with K13Q, A23V, A74S, S77T, L78V, N83S
VL: B2 VL
notes: as for B1
B13: 066-4.26.14H1L1 (antibody, human IgG1, V domains shown)
VH: B2 VH
VL: B2 VL with A19V, P40S, A60S, K103Q
notes: as for B1
B14: 066-4.26.14H2L2 (antibody, human IgG1, V domains shown)
VH: B2 VH with A40T, G42E, G44R, L78V, N83S, L114T
VL: B2 VL
notes: as for B1
B15: 066-4.26.14H2L3 (antibody, human IgG1, V domains shown)
VH: B2 VH with A40T, G42E, G44R, L78V, N83S, L114T
VL: B1 VL with E1D, T22S, V58I, T85A, Y87F, Q100P
notes: as for B1
B16: 066-4.26.14 (antibody, V domains shown)
VH: EVKLVESGGGLVKPGGSLKLSCAASGFTFRSYAMSWVRQTPEKRLEWVASISTTSNTYYPDSVKGRFTTSRDNARNIVYLQMSSLRSDDTAMYYCGRGVITNQAWFAYWGQGTLVTVSA
VL: DIVLTQSPATLSVTPGDSVSLSCRASQSISNNLHWYQQKSHESPRLLIKYASQSISGIPSRFSGSGSGTDFTLSVNNVGTEDFGMYFCQQSNSWPLTFGAGTKLELK
notes: Murine hybridoma antibody
B17: 066-4.26.14 mouse-human chimeric antibody (antibody, human IgG1, V domains shown)
VH: B16 VH
VL: DIVLTQSPATLSVTPGDSVSLSCRASQSISNNLHWYQQKSHESPRLLIKYASQSISGIPSRFSGSGSGTDFTLSVNNVGTEDFGMYFCQQSNSWPLTFGAGTKLELKR
B18: 066-7.17.2 (antibody, V domains shown)
VH: EVQLVESGGGLVKPGGSLKLSCAASGFTFSSYGMHWVRQAPEKGLEWVAMIWYDGTKKYYSDSVKGRFTISRDNAKNTLFLQMTSLRSEDTAMYYCARDRGIGTRHGPYFMDVWGQGTSVTVSS
VL: DIQMNQSPSSLSASLGDTITITCHARHNVRSYLNWYQQKPGNIPKLLIYAASSQQRGVPSRFSGSGSGTGFTLTISSLQPEDIATYYCLQSFGTPLTFGGGTKLEIK

What was measured:
Aβ1-42 polypeptide [1] = biological target: T2, Aβ1-42 polypeptide (human); assay: ELISA EC50 on Aβ42 monomer, 2 ml transient transfection; table note: '-' means no combination; expression 3.68 mg/L
T2 construct: Synthetic peptide; also called Aβ1-42 monomer; Aβ monomer
T2 sequence (peptide, as listed by the source): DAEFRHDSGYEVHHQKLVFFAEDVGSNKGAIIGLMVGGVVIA

Aβ1-42 polypeptide [2] = biological target: T2, Aβ1-42 polypeptide; assay: ELISA EC50 on Aβ42 monomer, 2 ml transient transfection; table note: '-' means no combination; expression 61 mg/L
Aβ1-42 polypeptide [3] = biological target: T2, Aβ1-42 polypeptide; assay: ELISA EC50 on Aβ42 monomer, 2 ml transient transfection; table note: '-' means no combination; expression 5.42 mg/L
Aβ1-42 polypeptide [4] = biological target: T2, Aβ1-42 polypeptide; assay: ELISA EC50 on Aβ42 monomer, 2 ml transient transfection; table note: '-' means no combination; expression 68.2 mg/L
Aβ1-42 polypeptide [5] = biological target: T2, Aβ1-42 polypeptide; assay: ELISA EC50 on Aβ42 monomer, 2 ml transient transfection; table note: '-' means no combination; expression 3.12 mg/L
Aβ1-42 polypeptide [6] = biological target: T2, Aβ1-42 polypeptide; assay: ELISA EC50 on Aβ42 monomer, 2 ml transient transfection; table note: '-' means no combination; expression 3.96 mg/L
Aβ1-42 polypeptide [7] = biological target: T2, Aβ1-42 polypeptide; assay: ELISA EC50 on Aβ42 monomer, 2 ml transient transfection; table note: '-' means no combination; expression 3.88 mg/L
Aβ1-42 polypeptide [8] = biological target: T2, Aβ1-42 polypeptide; assay: cell-based or functional assay
Aβ1-42 polypeptide [9] = biological target: T2, Aβ1-42 polypeptide; assay: SPR, Biacore T200, antibody captured on Protein A chip, human Aβ antigen as analyte
Description: Biacore-T200 detection was performed, ProteinA chip was used to capture candidate antibodies or positive antibodies, different concentrations of human Aβ antigen were used to flow through the chip, and the fitting analysis was performed based on the collected data. […] The detection conditions were: capture time: 30 s; antigen binding time: 120 s; dissociation time: 900 s; flow rate: 30 μl/min. And the regeneration conditions were: 20 mM NaOH solution, flow rate: 30 μl/min.

Aβ1-42 polypeptide [10] = biological target: T2, Aβ1-42 polypeptide; assay: ELISA EC50 on Aβ42 monomer, 2 ml transient transfection; table note: '-' means no combination; expression 32.1 mg/L
Aβ1-42 polypeptide [11] = biological target: T2, Aβ1-42 polypeptide; assay: ELISA EC50 on Aβ42 monomer, 2 ml transient transfection; table note: '-' means no combination; expression 60 mg/L
[12] = biological target: T1, biotinylated Aβ1-16 polypeptide; assay: ELISA, biotinylated peptide on streptavidin plate
Description: (§1) Detection: After stopping the reaction, the microtiter plate was immediately placed into a microplate reader, the OD value was measured at 450 nm, and the original data was stored.
(§2) Data processing: The raw data were input into the software SoftMax Pro 6.2.1 for data processing.

[13] = biological target: T3, biotinylated Aβ14-29 polypeptide (biotinylated (site not stated)); assay: ELISA, biotinylated peptide on streptavidin plate
T3 construct: also called Aβ14-29 (middle peptide fragment)
Description: as §1, §2

[14] = biological target: T1, biotinylated Aβ1-16 polypeptide; assay: ELISA, hybridoma supernatant on biotinylated peptide captured by streptavidin
Description: as §1, §2

[15] = biological target: T4, biotinylated Aβ1-42 polypeptide (human, biotinylated (site not stated)); assay: as above
T4 construct: also called Full length Aβ1-42
T4 sequence (peptide, as listed by the source): as above
Description: as §1, §2

[16] = biological target: T3, biotinylated Aβ14-29 polypeptide; assay: as above
Description: as §1, §2

Binder | relative fluorescence intensity (ThT, Aβ polymerization; hIgG = 1.00) (Aβ1-42 polypeptide [8]) | relative value of LDH release (SHSY5Y cells with Aβ; hIgG = 1.00) (Aβ1-42 polypeptide [8]) | Kd (Aβ1-42 polypeptide [9]) | koff (Aβ1-42 polypeptide [9]) | kon (Aβ1-42 polypeptide [9]) | further results
B1 | – | – | – | – | – | binding result (Aβ1-42 polypeptide [1]): no binding
B2 | – | – | – | – | – | binding result (Aβ1-42 polypeptide [2]): no binding
B3 | – | – | – | – | – | binding result (Aβ1-42 polypeptide [3]): no binding
B4 | – | – | – | – | – | binding result (Aβ1-42 polypeptide [4]): no binding
B5 | – | – | – | – | – | binding result (Aβ1-42 polypeptide [5]): no binding
B6 | – | – | – | – | – | binding result (Aβ1-42 polypeptide [6]): no binding
B7 | – | – | – | – | – | binding result (Aβ1-42 polypeptide [7]): no binding
B8 | 0.7 relative to hIgG | 1.3 relative to hIgG | 36.3 nM | 0.000463 s⁻¹ | 12800 M⁻¹ s⁻¹ | –
B9 | 0.78 relative to hIgG | 1.41 relative to hIgG | 32.5 nM | 0.00046 s⁻¹ | 14200 M⁻¹ s⁻¹ | –
B10 | – | – | – | – | – | binding result (Aβ1-42 polypeptide [10]): no binding
B11 | 0.68 relative to hIgG | 1.37 relative to hIgG | 24.8 nM | 0.000469 s⁻¹ | 18900 M⁻¹ s⁻¹ | –
B12 | 0.67 relative to hIgG | 1.26 relative to hIgG | 20.8 nM | 0.000278 s⁻¹ | 13400 M⁻¹ s⁻¹ | –
B13 | – | – | – | – | – | binding result (Aβ1-42 polypeptide [11]): no binding
B14 | 0.62 relative to hIgG | 1.41 relative to hIgG | 22.5 nM | 0.000433 s⁻¹ | 19200 M⁻¹ s⁻¹ | –
B15 | 0.67 relative to hIgG | 1.42 relative to hIgG | 25.8 nM | 0.000472 s⁻¹ | 18300 M⁻¹ s⁻¹ | –
B16 | 0.7 relative to hIgG | 1.2 relative to hIgG | – | – | – | relative fluorescence intensity (ThT, Aβ polymerization; PBS group = 1.0) (Aβ1-42 polypeptide [8]): 0.46 relative to PBS group; relative value of LDH release (SHSY5Y cells with Aβ; Vehicle group = 1.0) (Aβ1-42 polypeptide [8]): 1.2 relative to Vehicle group; binding result [12]: no binding; binding result [13]: no binding; OD value at 450 nm [14]: 0.0602 OD; OD value at 450 nm [15]: 1.93 OD; OD value at 450 nm [16]: 0.0674 OD
B17 | 0.71 relative to hIgG | 1.32 relative to hIgG | 12.6 nM | 0.000333 s⁻¹ | 26500 M⁻¹ s⁻¹ | –
B18 | – | – | – | – | – | OD value at 450 nm [14]: 0.92 OD; OD value at 450 nm [15]: 1.08 OD; OD value at 450 nm [16]: 0.0612 OD
